Among the data in PMC10163693, “The oncogenic role of NF1 in gallbladder cancer through regulation of YAP1 stability by direct interaction with YAP1” (Journal of Translational Medicine, 2023) are binding result and Kd values, retold here.

Common to all, as to conditions: both partners purified
In assay [1] the target is T1, GST-NF1^PPQY (residues 2665-2687) (UniProt P21359-2 2665-2687).
T1 construct: Neurofibromin 1 (NF1), residues 2665-2687, holds the PPQY motif; also called GST-tagged NF1^PPQY; source: purified; not shown: GST, N-terminal, kept
T1 chain (looked up): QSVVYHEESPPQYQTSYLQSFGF
Description: pull-down; GST, GST-NF1^PPQY or GST-NF1^AAAA prebound on Glutathione Sepharose beads; increasing amounts of His-Sumo-YAP1^WW1 or His-Sumo-YAP1^WW2 added; 20 mM Tris pH 8.0, 150 mM NaCl, 2 h, 4 °C; eluted with 10 mM GSH; SDS-PAGE, Coomassie blue.

Assay [2] has as its target T2, YAP1^WW1 (as used in ITC) (UniProt P46937 174-204).
T2 construct: Yes-associated protein 1 (YAP1), first WW domain; the label YAP1^WW1 is defined as residues 174-204 in the pull-down methods; The ITC methods name only YAP1^WW1
Description: ITC; 25 °C, PEAQ-ITC; 10 mM NF1^PPQY peptide injected (20 injections of 2 μl) into 1 mM YAP1^WW1 or YAP1^WW2; 10 mM Tris pH 8.0, 100 mM NaCl; one-site binding model. For orientation: In ITC the heat of successive injections is recorded.

Assay [3] deals with T3, YAP1^WW2 (as used in ITC) (UniProt P46937 227-266).
T3 construct: Yes-associated protein 1 (YAP1), second WW domain; the label YAP1^WW2 is defined as residues 227-266 in the pull-down methods; The ITC methods name only YAP1^WW2
The assay is described as above.

B1: His-Sumo-YAP1^WW2 (residues 227-266) (domain or fragment, UniProt P46937 227-266, looked up)
chain: SASGPLPDGWEQAMTQDGEIYYINHKNKTTSWLDPRLDPR
notes: Yes-associated protein 1 (YAP1), second WW domain, residues 227-266; source: purified; not shown: His, N-terminal, kept; Sumo, N-terminal, kept
Take B1: the binding result in assay [1] is listed as “binds”.

B2: NF1^PPQY peptide (residues 2671-2680: EESPPQYQTS) (peptide)
peptide: EESPPQYQTS
notes: also called NF1 peptides; source: synthetic peptide (Scilight-Peptide, China)
Take B2: the Kd (in general, the concentration at which binding is half-saturated) is 320 µM in assay [2] and 346 µM in assay [3].

B3: His-Sumo-YAP1^WW1 (residues 174-204) (domain or fragment, UniProt P46937 174-204, looked up)
chain: PAGWEMAKTSSGQRYFLNHIDQTTTWQDPRK
notes: Yes-associated protein 1 (YAP1), first WW domain, residues 174-204; source: purified; not shown: His, N-terminal, kept; Sumo, N-terminal, kept
For B3, the binding result in assay [1] was “binds”.
